First the molecules themselves.
T1: Tfa1 subunit of TFIIE (S. cerevisiae, UniProt P36100 1-482)
T1 sequence (looked up): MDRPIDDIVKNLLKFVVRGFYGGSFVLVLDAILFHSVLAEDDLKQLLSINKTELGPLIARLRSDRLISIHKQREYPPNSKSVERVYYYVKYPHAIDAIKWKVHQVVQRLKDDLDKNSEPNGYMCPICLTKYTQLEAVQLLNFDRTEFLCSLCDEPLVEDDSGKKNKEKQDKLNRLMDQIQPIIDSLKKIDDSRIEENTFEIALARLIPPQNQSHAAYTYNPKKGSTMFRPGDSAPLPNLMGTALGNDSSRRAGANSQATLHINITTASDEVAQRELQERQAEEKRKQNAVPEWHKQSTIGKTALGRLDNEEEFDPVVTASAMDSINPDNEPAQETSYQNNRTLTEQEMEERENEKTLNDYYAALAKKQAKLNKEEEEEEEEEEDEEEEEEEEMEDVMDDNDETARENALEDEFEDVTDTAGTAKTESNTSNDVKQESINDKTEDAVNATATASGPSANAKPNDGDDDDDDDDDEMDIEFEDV

B1: Ssl2 helicase subunit of TFIIH (natural protein, S. cerevisiae, UniProt Q00578 1-843, looked up)
chain: MTDVEGYQPKSKGKIFPDMGESFFSSDEDSPATDAEIDENYDDNRETSEGRGERDTGAMVTGLKKPRKKTKSSRHTAADSSMNQMDAKDKALLQDTNSDIPADFVPDSVSGMFRSHDFSYLRLRPDHASRPLWISPSDGRIILESFSPLAEQAQDFLVTIAEPISRPSHIHEYKITAYSLYAAVSVGLETDDIISVLDRLSKVPVAESIINFIKGATISYGKVKLVIKHNRYFVETTQADILQMLLNDSVIGPLRIDSDHQVQPPEDVLQQQLQQTAGKPATNVNPNDVEAVFSAVIGGDNEREEEDDDIDAVHSFEIANESVEVVKKRCQEIDYPVLEEYDFRNDHRNPDLDIDLKPSTQIRPYQEKSLSKMFGNGRARSGIIVLPCGAGKTLVGITAACTIKKSVIVLCTSSVSVMQWRQQFLQWCTLQPENCAVFTSDNKEMFQTESGLVVSTYSMVANTRNRSHDSQKVMDFLTGREWGFIILDEVHVVPAAMFRRVVSTIAAHAKLGLTATLVREDDKIGDLNFLIGPKLYEANWMELSQKGHIANVQCAEVWCPMTAEFYQEYLRETARKRMLLYIMNPTKFQACQFLIQYHERRGDKIIVFSDNVYALQEYALKMGKPFIYGSTPQQERMNILQNFQYNDQINTIFLSKVGDTSIDLPEATCLIQISSHYGSRRQEAQRLGRILRAKRRNDEGFNAFFYSLVSKDTQEMYYSTKRQAFLVDQGYAFKVITHLHGMENIPNLAYASPRERRELLQEVLLKNEEAAGIEVGDDADNSVGRGSNGHKRFKSKAVRGEGSLSGLAGGEDMAYMEYSTNKNKELKEHHPLIRKMYYKNLKK
B2: Tfa2 subunit of TFIIE (natural protein, S. cerevisiae, UniProt P36145 1-328, looked up)
chain: MSKNRDPLLANLNAFKSKVKSAPVIAPAKVGQKKTNDTVITIDGNTRKRTASERAQENTLNSAKNPVLVDIKKEAGSNSSNAISLDDDDDDEDFGSSPSKKVRPGSIAAAALQANQTDISKSHDSSKLLWATEYIQKKGKPVLVNELLDYLSMKKDDKVIELLKKLDRIEFDPKKGTFKYLSTYDVHSPSELLKLLRSQVTFKGISCKDLKDGWPQCDETINQLEEDSKILVLRTKKDKTPRYVWYNSGGNLKCIDEEFVKMWENVQLPQFAELPRKLQDLGLKPASVDPATIKRQTKRVEVKKKRQRKGKITNTHMTGILKDYSHRV
B3: TFIIB (natural protein, S. cerevisiae, UniProt P29055 1-345, looked up)
chain: MMTRESIDKRAGRRGPNLNIVLTCPECKVYPPKIVERFSEGDVVCALCGLVLSDKLVDTRSEWRTFSNDDHNGDDPSRVGEASNPLLDGNNLSTRIGKGETTDMRFTKELNKAQGKNVMDKKDNEVQAAFAKITMLCDAAELPKIVKDCAKEAYKLCHDEKTLKGKSMESIMAASILIGCRRAEVARTFKEIQSLIHVKTKEFGKTLNIMKNILRGKSEDGFLKIDTDNMSGAQNLTYIPRFCSHLGLPMQVTTSAEYTAKKCKEIKEIAGKSPITIAVVSIYLNILLFQIPITAAKVGQTLQVTEGTIKSGYKILYEHRDKLVDPQLIANGVVSLDNLPGVEKK
B4: Ssl1 subunit of core TFIIH (natural protein, S. cerevisiae, UniProt Q04673 1-461, looked up)
chain: MAPVVISESEEDEDRVAITRRTKRQVHFDGEGDDRVDQQQQQHSSSHRDRDKHVQRKKKKRLSNRNLQGSNGGYAWEDEIKRSWDLVKVDDEGDMASLVASIVEARKKRTAKKNITPYQRGIIRSLILTLDCSEAMLEKDLRPNRHAMIIQYAIDFVHEFFDQNPISQMGIIIMRNGLAQLVSQVSGNPQDHIDALKSIRKQEPKGNPSLQNALEMARGLLLPVPAHCTREVLIVFGSLSTTDPGDIHQTIDSLVSEKIRVKVLGLSAQVAICKELCKATNYGDESFYKILLDETHLKELFNEAVTPLPVNKINKGFTLVKMGFPTRIFEDTPTFCSCHSKLVYGGYFCPNCHSKVCSLPTVCPCCDLMLILSTHLARSYHHLMPLKTFAEVPTTEKFRSEDCFSCQSRFPILKNHKNGKLLTSSRYRCEDCKQEFCVDCDVFIHEILHNCPGCESKPVIT
B5: Toa2 subunit of TFIIA (natural protein, S. cerevisiae, UniProt P32774 1-122, looked up)
chain: MAVPGYYELYRRSTIGNSLVDALDTLISDGRIEASLAMRVLETFDKVVAETLKDNTQSKLTVKGNLDTYGFCDDVWTFIVKNCQVTVEDSHRDASQNGSGDSQSVISVDKLRIVACNSKKSE
B6: Tfg1 subunit of TFIIF (natural protein, S. cerevisiae, UniProt P41895 1-735, looked up)
chain: MSRRNPPGSRNGGGPTNASPFIKRDRMRRNFLRMRMGQNGSNSSSPGVPNGDNSRGSLVKKDDPEYAEEREKMLLQIGVEADAGRSNVKVKDEDPNEYNEFPLRAIPKEDLENMRTHLLKFQSKKKINPVTDFHLPVRLHRKDTRNLQFQLTRAEIVQRQKEISEYKKKAEQERSTPNSGGMNKSGTVSLNNTVKDGSQTPTVDSVTKDNTANGVNSSIPTVTGSSVPPASPTTVSAVESNGLSNGSTSAANGLDGNASTANLANGRPLVTKLEDAGPAEDPTKVGMVKYDGKEVTNEPEFEEGTMDPLADVAPDGGGRAKRGNLRRKTRQLKVLDENAKKLRFEEFYPWVMEDFDGYNTWVGSYEAGNSDSYVLLSVEDDGSFTMIPADKVYKFTARNKYATLTIDEAEKRMDKKSGEVPRWLMKHLDNIGTTTTRYDRTRRKLKAVADQQAMDEDDRDDNSEVELDYDEEFADDEEAPIIDGNEQENKESEQRIKKEMLQANAMGLRDEEAPSENEEDELFGEKKIDEDGERIKKALQKTELAALYSSDENEINPYLSESDIENKENESPVKKEEDSDTLSKSKRSSPKKQQKKATNAHVHKEPTLRVKSIKNCVIILKGDKKILKSFPEGEWNPQTTKAVDSSNNASNTVPSPIKQEEGLNSTVAEREETPAPTITEKDIIEAIGDGKVNIKEFGKFIRRKYPGAENKKLMFAIVKKLCRKVGNDHMELKKE
B7: Tfg2 subunit of TFIIF (natural protein, S. cerevisiae, UniProt P41896 1-400, looked up)
chain: MSSGSAGAPALSNNSTNSVAKEKSGNISGDEYLSQEEEVFDGNDIENNETKVYEESLDLDLERSNRQVWLVRLPMFLAEKWRDRNNLHGQELGKIRINKDGSKITLLLNENDNDSIPHEYDLELTKKVVENEYVFTEQNLKKYQQRKKELEADPEKQRQAYLKKQEREEELKKKQQQQKRRNNRKKFNHRVMTDRDGRDRYIPYVKTIPKKTAIVGTVCHECQVMPSMNDPNYHKIVEQRRNIVKLNNKERITTLDETVGVTMSHTGMSMRSDNSNFLKVGREKAKSNIKSIRMPKKEILDYLFKLFDEYDYWSLKGLKERTRQPEAHLKECLDKVATLVKKGPYAFKYTLRPEYKKLKEEERKATLGELADEQTGSAGDNAQGDAEADLEDEIEMEDVV

What all share (assay): cross-linking
Assay [1] deals with Rpb1 subunit of RNA polymerase II (S. cerevisiae, UniProt P04050 1-1733).
The assay “Tfg2 subunit of TFIIF” deals with B7.
A further assay deals with T1, Tfa1 subunit of TFIIE.
The target in another assay is Rpb2 subunit of pol II (S. cerevisiae, UniProt P08518 1-1224).
For assay [2], the target named is B1.

This note sets out measurements from article PMC4039082 (Science (New York, N.Y.), 2013).

Sequence of Rpb2 subunit of pol II (P08518 whole entry): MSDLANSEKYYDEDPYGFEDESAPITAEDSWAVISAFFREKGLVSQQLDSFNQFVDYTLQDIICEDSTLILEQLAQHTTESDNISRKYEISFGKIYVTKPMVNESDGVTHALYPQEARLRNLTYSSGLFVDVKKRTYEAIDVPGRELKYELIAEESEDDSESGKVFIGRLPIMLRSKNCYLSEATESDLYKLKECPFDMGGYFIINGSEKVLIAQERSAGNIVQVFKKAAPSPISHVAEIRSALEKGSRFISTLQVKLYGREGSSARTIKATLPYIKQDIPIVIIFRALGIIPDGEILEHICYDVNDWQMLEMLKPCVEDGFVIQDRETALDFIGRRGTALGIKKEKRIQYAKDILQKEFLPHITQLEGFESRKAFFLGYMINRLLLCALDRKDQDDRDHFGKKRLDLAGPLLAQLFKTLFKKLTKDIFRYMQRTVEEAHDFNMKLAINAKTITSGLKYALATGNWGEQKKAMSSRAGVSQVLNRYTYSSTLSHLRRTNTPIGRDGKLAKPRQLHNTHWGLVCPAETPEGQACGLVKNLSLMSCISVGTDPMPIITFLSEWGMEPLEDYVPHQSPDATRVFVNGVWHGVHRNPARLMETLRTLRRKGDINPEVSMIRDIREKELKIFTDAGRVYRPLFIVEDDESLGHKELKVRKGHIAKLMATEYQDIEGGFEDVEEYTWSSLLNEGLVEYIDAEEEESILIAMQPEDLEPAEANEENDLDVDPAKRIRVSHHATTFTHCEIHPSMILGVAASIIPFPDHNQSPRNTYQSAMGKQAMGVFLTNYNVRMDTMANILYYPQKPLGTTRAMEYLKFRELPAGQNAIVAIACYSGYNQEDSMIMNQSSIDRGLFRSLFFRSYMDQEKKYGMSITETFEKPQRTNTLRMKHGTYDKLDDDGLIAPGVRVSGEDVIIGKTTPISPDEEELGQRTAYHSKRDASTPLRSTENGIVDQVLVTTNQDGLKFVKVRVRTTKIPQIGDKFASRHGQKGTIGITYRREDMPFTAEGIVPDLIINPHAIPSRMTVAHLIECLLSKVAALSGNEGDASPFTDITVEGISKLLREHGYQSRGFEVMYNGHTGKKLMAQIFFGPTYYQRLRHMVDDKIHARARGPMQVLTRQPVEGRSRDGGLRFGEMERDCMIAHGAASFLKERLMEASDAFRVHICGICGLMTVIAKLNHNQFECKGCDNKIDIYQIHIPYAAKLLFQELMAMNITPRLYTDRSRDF
Sequence of Rpb1 subunit of RNA polymerase II (P04050 whole entry): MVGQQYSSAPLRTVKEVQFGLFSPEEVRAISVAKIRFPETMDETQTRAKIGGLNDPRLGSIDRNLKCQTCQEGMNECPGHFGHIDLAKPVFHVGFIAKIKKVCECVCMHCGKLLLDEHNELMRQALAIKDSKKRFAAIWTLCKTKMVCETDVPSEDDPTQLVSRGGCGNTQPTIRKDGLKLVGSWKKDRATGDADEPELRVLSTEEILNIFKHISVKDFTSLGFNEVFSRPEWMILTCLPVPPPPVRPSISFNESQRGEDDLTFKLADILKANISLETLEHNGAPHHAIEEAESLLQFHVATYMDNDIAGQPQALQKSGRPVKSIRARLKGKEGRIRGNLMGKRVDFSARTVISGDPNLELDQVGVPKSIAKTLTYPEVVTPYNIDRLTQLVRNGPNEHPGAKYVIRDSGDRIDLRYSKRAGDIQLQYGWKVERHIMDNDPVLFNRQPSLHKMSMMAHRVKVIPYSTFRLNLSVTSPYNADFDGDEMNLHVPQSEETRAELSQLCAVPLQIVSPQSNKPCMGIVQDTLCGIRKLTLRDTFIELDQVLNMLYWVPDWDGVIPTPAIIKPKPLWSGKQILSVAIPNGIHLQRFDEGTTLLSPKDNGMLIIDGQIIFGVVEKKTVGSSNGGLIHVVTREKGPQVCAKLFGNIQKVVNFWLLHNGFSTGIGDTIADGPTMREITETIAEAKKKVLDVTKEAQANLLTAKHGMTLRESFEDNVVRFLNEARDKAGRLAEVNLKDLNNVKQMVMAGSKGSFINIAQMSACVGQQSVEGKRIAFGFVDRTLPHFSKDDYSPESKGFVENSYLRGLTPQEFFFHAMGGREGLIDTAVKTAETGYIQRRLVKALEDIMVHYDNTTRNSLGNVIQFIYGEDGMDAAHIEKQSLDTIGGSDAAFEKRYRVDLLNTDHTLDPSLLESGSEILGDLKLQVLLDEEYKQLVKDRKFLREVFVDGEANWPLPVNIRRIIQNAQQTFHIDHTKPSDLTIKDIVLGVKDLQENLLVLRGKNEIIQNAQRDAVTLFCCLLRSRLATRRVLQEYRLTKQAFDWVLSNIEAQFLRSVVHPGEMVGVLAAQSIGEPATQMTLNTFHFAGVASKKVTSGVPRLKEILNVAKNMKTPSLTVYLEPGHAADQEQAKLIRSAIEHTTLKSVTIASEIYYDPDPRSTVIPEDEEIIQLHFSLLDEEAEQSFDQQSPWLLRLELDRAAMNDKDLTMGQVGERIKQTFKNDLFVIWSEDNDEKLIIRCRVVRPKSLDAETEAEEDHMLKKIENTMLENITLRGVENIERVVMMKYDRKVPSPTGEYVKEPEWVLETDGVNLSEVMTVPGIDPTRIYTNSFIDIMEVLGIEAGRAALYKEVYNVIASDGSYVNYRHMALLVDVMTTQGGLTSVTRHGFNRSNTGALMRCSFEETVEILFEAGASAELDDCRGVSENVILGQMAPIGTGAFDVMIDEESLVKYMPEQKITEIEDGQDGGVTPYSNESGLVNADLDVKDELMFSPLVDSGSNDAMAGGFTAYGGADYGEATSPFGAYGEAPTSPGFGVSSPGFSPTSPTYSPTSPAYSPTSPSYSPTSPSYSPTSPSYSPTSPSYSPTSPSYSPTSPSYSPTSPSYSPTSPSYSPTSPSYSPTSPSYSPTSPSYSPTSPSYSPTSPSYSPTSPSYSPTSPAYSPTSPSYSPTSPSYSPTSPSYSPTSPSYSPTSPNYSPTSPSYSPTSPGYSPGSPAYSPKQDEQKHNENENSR

In the case of B1, the binding result in assay [1] is “binds”. Take B2: the binding result with Tfg2 subunit of TFIIF and with Tfa1 subunit of TFIIE was “binds” throughout.

Turning to B3, in the assay with Tfg2 subunit of TFIIF, the binding result was “binds”. Take B4: the binding result with Tfa1 subunit of TFIIE is recorded as “binds”. Consider B5, for which the binding result with Tfg2 subunit of TFIIF is reported as “binds”.

For B6, in the assay with Rpb2 subunit of pol II, the binding result is given as “binds”. Take B7: the binding result (in the assay with Rpb2 subunit of pol II; in assay [2]) was “binds” each time.
